B1: Isoform 2 of ATP-binding cassette sub-family B member 8, mitochondrial (Homo sapiens), Q9NUT2-2 (parent)
chain: MLVHLFRVGIRGGPFPGRLLPPLRFQTFSAVRYSDGYRSSSLLRAVAHLRSQLWAHLPRAPLAPRWSPSAWCWVGGALLGPMVLSKHPHLCLVALCEAEEAPPASSTPHVVGSRFNWKLFWQFLHPHLLVLGVAVVLALGAALVNVQIPLLLGQLVEVVAKYTRDHVGSFMTESQNLSTHLLILYGVQGLLTFGYLVLLSHVGERMAVDMRRALFSSLLRQDITFFDANKTGQLVSRLTTDVQEFKSSFKLVISQGLRSCTQVAGCLVSLSMLSTRLTLLLMVATPALMGVGTLMGSGLRKLSRQCQEQIARAMGVADEALGNVRTVRAFAMEQREEERYGAELEACRCRAEELGRGIALFQGLSNIAFNCMVLGTLFIGGSLVAGQQLTGGDLMSFLVASQTVQRSMANLSVLFGQVVRGLSAGARVFEYMALNPCIPLSGGCCVPKEQLRGSVTFQNVCFSYPCRPGFEVLKDFTLTLPPGKIVALVGQSGGGKTTVASLLERFYDPTAGVVMLDGRDLRTLDPSWLRGQVVGFISQEPVLFGTTIMENIRFGKLEASDEEVYTAAREANAHEFITSFPEGYNTVVGERGTTLSGGQKQRLAIARALIKQPTVLILDEATSALDAESERVVQEALDRASAGRTVLVIAHRLSTVRGAHCIVVMADGRVWEAGTHEELLKKGGLYAELIRRQALDAPRTAAPPPKKPEGPRSHQHKS
partner: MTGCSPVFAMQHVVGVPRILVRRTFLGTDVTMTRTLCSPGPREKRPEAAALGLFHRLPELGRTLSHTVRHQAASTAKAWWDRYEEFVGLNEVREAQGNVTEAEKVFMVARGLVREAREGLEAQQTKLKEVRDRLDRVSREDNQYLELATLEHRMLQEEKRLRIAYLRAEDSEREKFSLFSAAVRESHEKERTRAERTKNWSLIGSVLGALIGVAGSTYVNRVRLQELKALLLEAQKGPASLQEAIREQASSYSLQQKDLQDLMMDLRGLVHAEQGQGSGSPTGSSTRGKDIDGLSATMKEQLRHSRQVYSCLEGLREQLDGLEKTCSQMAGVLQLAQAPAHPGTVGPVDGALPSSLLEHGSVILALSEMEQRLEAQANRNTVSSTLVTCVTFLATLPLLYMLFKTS

The variants in this experiment derive from B1. The note with it: with Ccdc51, Q3URS9-1.
With K496A, the “effect of a mutation on the interaction” value is given as “with no effect”.

These data come from IntAct's records for PubMed 31435016.
